From the DeepSol protein solubility set

Assay: soluble on expression in E. coli; label from the status in PepcDB or PDB records
With “MSHIIDRRLNGKNKSAVNRERFLRRFKAQIKEAVSKAIKGRSITDIESGEKVSIPVKDISEPSFHHGKGGVWENVHPGNEEFVKGDRIPRPQGGAGGGGSKASQDGEGEDDFVFQLSREEFMNVFFDDLALPNLVKTQLMGIEEMKTVRAGYTNDGTPTNINIVRSPRGALARRVAMAAPTLSSIDEAEEELDTLIESDDDNALEVRDRRQRIHQMKERLASIPWIDPFDLRYNNRVKQPKPTSQAVMFCIMDVSGSMDEQKKDMAKRFFILLYMFLQRNYEKIEVVFIRHHTSAVEVNEQDFFHSRESGGTVVSSALNLMSDVIRKRYASSEWNIYAAQASDGDNWDSDSANCGRILEENLLPYCQYFAYIEITEGEPQNLWYEYLKVKAQCPQFAMQKIRSASDIYPVFRELFKRQPANGRVSALEHHHHHH” the “soluble on expression in E. coli” value was “soluble”.
With “MGSDKIHHHHHHMWKSISQVLAEQFGAYYFIKHKEKLYSGEMNEIWLINDEVQTVFVKINERSYRSMFRAEADQLALLAKTNSINVPLVYGIGNSQGHSFLLLEALNKSKNKQSSFTIFAEKIAQLHQIQGPDKYGLDFDTWLGPIYQPNDWQTSWAKFFSENRIGWQLQICKEKGLIFGNIDLIVQIVADTLSKHNPKPSILHGNLWIENCIQVDDKIFVCNPACYWGDRECDIAFSSLFEPFPTNFYQRYNEIYPLEEGYLERKLIYQLYYLLNFSYRYYNKKQSYVSLTQKLINQILHKIDK” the “soluble on expression in E. coli” value was “not soluble”.
With “MGSDKIHHHHHHMVKVVKFGGSSLANAAQYQKVIEILRADPERRIVVVSAPGKRFKDDVKVTDLLIKYANASGENVKVARQAVLDRYQEIADAYHVSDSDFEQINVHLIDLANLHHANKACRLAHFKAAGERLNAILMALVLKKFNVTARFVDPKQLGIKAHGDYNNAILDQHSYAQIEAVCSNLLDEAEYLVVPGFYAYNQNGEVCTFSRGGSDITGAILARGFQAQLYENFTDVDSIYSADPKIIAQPHPIREMTYREMRELAYAGFSVFHDEAIIPAIEAQVPIVIKNTDHPNLPGTVIEPEQNYASDLEITGVASSSRFAALYIHKYLLNREVGFTLKLLKILYRYDISYEHMPSGIDDLTIIFNQNQITDEILPSLLSDIREELHTDQLEWIDDYAILMVVGEGMRDKVGVVDRIVNALARKQIGIQMINQGASRISTMLGVHQNQVNQAVREIYREFFKNKGRAD” the “soluble on expression in E. coli” value was “not soluble”.
For “AIAAESNQNTDGAVEEGEDENTGDSNLQMELSAFRAKWMSELQPSSGGQRSFSRNAELRRRQETAKEEKARELFLKAVEEEQNGAVYEAIKYYKSAMQLVPDIEFKINYSRTPDPERGGSYLESSENNREIDDLLTYFQHQLTLGNDAMKLCEHETETSQVHISALPFEVLMYIFRWVVSCDLDLRALEQLSLVCRGFYICARDPEIWRSACLRVWGRSCTKMLPYSSWREMFLERPRVRFDGVYISKTSYIRQGEESLDGFYRAWHQVEYYRYLRFFPDGQVMMLTTPEDPLVTVPRLRSKNSRMDSIMFGHYRLSQDTDNQTKVYVVVSKRKEEKVSEYQRSRFCRRNPVPEAERSFHVGLQLSSGGRQRFNKLVWIHHSCHITYRSTGETVVTAFDVDKMYTPLFFARVKSYTAFSERPL”, the “soluble on expression in E. coli” value was “soluble”.
In the case of “MHSLDSYFQRTTAPKSAAQERREEFHEKVMRSADYIADKFVETVRPLVDEVADKLQSEMPEDMEGTAKRRLICELSRRFGVSISAFK”, the “soluble on expression in E. coli” value is reported as “not soluble”.
For “MAKPDQLELLFDVAPPADPASAAPPGAPPRKTPKARPAPPAPAAIATPCPDPLPPGARWREVHTEQQPIGFVLLRSRRRSIGFVVADDGLRVTAPNWVTLGQIDDAVREKARWILAKLRDWHARKEQLAMAHTRWQAGGELPYLGKRIVLGLGAERRQACLSGDADAPCDGDTLWLALPVDADQARIRDAAQAWLQQRAGAWFGARLAHFLQLTGLRIRRWRLSSAATRWGSCTSDGNIMLNWRLIHFAPAIIDYVIAHELAHLREMNHSQDFWTEVGHILPGFEDAKNVLRRHDPATLPQFLEHHHHHH”, the “soluble on expression in E. coli” value was “soluble”.
For “SKIKDAKKPSFPWFGMDIGGTLVKLSYFEPIDITAEEEQEEVESLKSIRKYLTSNVAYGSTGIRDVHLELKDLTLFGRRGNLHFIRFPTQDLPTFIQMGRDKNFSTLQTVLCATGGGAYKFEKDFRTIGNLHLHKLDELDCLVKGLLYIDSVSFNGQAECYYFANASEPERCQKMPFNLDDPYPLLVVNIGSGVSILAVHSKDNYKRVTGTSLGGGTFLGLCSLLTGCESFEEALEMASKGDSTQADKLVRDIYGGDYERFGLPGWAVASSFGNMIYKEKRESVSKEDLARATLVTITNNIGSVARMCAVNEKINRVVFVGNFLRVNTLSMKLLAYALDYWSKGQLKALFLEHEGYFGAVGALLGLPNFS”, the “soluble on expression in E. coli” value was “soluble”.
For “MEHPNLEENVGEQDFASNDRFFNSYNIVPRRILQANYDSSLRQMEGYQEEIETDNPINESRGDEAEELENEGCDDRDRCTSRNSIDSEIYENSDEEVYDESMYESEEEYADSPFIIDKMEECLQNHQIGELGSRVMEGLETGTLADVQLEEFCRSRVKPEVTPREFYEELASSGNGDWKKFSMGQFVLSKMKSSKDTAWANTEATVNSLAANLSKANTVGSIVKRVISREYAIEEKDGFPRYNLTNFYNNTTLQGQGAVAQLTSVYVGFLKNLFKPSFKIWLFTYRPSSAYNFDKHFVEYPASVIDTIFGRKLDAFSMEVLGVYLPEDLLVGGCYNVSDASETFLQSLGENASKEVERRRKFRGPARKTCIGAMAAAMKSLRQHHYNAARDTVSYCSARSDCKEHLTWHQLRFYRAHSGKTKEECDLARPDDVMAFCRERAMPRYSLSPNRDATS”, the “soluble on expression in E. coli” value was “soluble”.
In the case of “MKIIITGEPGVGKTTLVKKIVERLGKRAIGFWTEEVRDPETKKRTGFRIITTEGKKKIFSSKFFTSKKLVGSYGVNVQYFEELAIPILERAYREAKKDRRKVIIIDEIGKMELFSKKFRDLVRQIMHDPNVNVVATIPIRDVHPLVKEIRRLPGAVLIELTPENRDVILEDILSLLER”, the “soluble on expression in E. coli” value is reported as “soluble”.
With “MSLQRVSNRLIEQSDIENMPNTWKKQAYRQIAKKLGPKSNFPCIFSKNAYKKGLLQFVFMESISHDQMEELKVCLTEFIEANKEWDHRISTAKPLLIVFSTQAIKSERLEDYHSFGWNVLRSIHALDPSPWPHGVDKDPSSPNWSMCFNGMQLFINMSCPAHKVRRSRNLGDHFIMVVNPRERFDVVAGDNAKGHRVRDEIRGRIEIYDNCKPCKQLGYFGSDTMEWQQYGIIEENKTRTSKCPYKIDEGHHHHHH” the “soluble on expression in E. coli” value was “soluble”.
With “KRAVDARTVGRMIRMSGCPDESASAKAVDWFVLMFMLRGIPFVDLAHLRRSNLDKGVLTYCRHKTGQEVSISVPREAMEIINRRMVENCHPSYLLPILGQPRTRKRHTKKALTPYQEYQYALRNLNRRLERVSVDLRLGGRLSSYTARHTWATIAFHQETPVGVISRGLGHSSVKVTETYLKPFGDREVDRTNRKILNYVLNAV” the “soluble on expression in E. coli” value was “not soluble”.
For “AIACTGCVQKQYPDRGNTCLENGSYLMNFVGCANCHQRDFVLISDRTMVNEDEEEIVTYLHMCKNCEHVIARHEYTFTVVDDYQEYTMLCMLCGKAEDSISVLPDDPRQTAPLF”, the “soluble on expression in E. coli” value was “soluble”.
For “MSPGSSTGMVSEKCGDAESKRAPYPPPLRLARRVCYPQYTQKSLDMRAQEKLVGRKRDMKMARFLAKQAKESKEMVKKAAKETTEKTTKNDSTV”, the “soluble on expression in E. coli” value was “not soluble”.
With “MPAIEVGRICVKVKGREAGSKCVIVDIIDDNFVLVTGPKDITGVKRRRVNILHLEPTDKKIDIQKGASDEEVKKKLEESNLTEYMKEKIKIRMPTL” the “soluble on expression in E. coli” value was “soluble”.
In the case of “GMDGASEIELVFRPHPTLMEKDDSAQTRYIKTSGNATVDHLSKYLAVRLALEELRSKGESNQMNLDTASEKQYTIYIATASGQFTVLNGSFSLELVSEKYWKVNKPMELYYA”, the “soluble on expression in E. coli” value is reported as “soluble”.
In the case of “MVEADHPGKLFIGGLNRETNEKMLKAVFGKHGPISEVLLIKDRTSKSRGFAFITFENPADAKNAAKDMNGTSLHGKAIKVEQAKKPSFQSGGRRRPPASSRNRSPSGSLRSARGSSGGTRGWLPSHEGHLDDGGYTPDLKMSYSRGLIPVKRGPSSRSGGPPPKKSAPSAVARSNSWMGSQGPMSQRRENYGVPPRRATISSWRNDRMSTRHDGYATNDGNHPSCQETRDYAPPSRGYAYRDNGHSNRDEHSSRGYRNHRSSRETRDYAPPSRGHAYRDYGHSRRDESYSRGYRNHRSSRETREYAPPSRGHGYRDYGHSRRHESYSRGYRNHPSSRETRDYAPPHRDYAYRDYGHSSWDEHSSRGYSYHDGYGEALGRDHSEHLSGSSYRDALQRYGTSHGAPPARGPRMSYGGSTCHAYSNTRDRYGRSWESYSSCGDFHYCDREHVCRKDQRNPPSLGRVLPDPREAYGSSSYVASIVDGGESRSEKGDSSRY”, the “soluble on expression in E. coli” value is reported as “soluble”.
In the case of “MGSDKIHHHHHHLGFGAPKISNEEERLRALAEYRILGTQPEQCYDDITKIASLTCGTPISLMSLVDTDTQWFKSMCGFETKETSRDVSFCAHAIASSEPLIVEDALLDERFKSNPLVVEEPKIRLYAGFPLQTPNDQRIGTLCVIDRKPGHLSDHQHQIMEALSRQVVTLLELRKRSIRLLDALTHMHNTEGILTTCSYCKEVRDSDGEWQHLEKYLSKIADIRFSHGICDLCMEKHFPDVLEVWSDDKLDLNSKKNKPECKKSN”, the “soluble on expression in E. coli” value is reported as “not soluble”.
With “MQNNVVDSIIIDVLSASTHEKPLCKVITEERVLKLLDLALGVFKAQKPMVEVNAPIKVCGDIHGQFPDLLRLFHRGGWPPTANYLFLGDYVDRGRFSIETIVLLLAYKVKFPCNFFLLRGNHECEFVNKTYGFYEECQKRYQSVRMYAAFQDVFNWLPLTGLIATKILCMHGGLSPLMTKEFTLDTLRKIERPTEGKEGLVADLLWADPISGLSGFMNNQRGAGCGFGRDSVLNLCSEFQLDLVCRAHQVVQDGYEFFAGRKLVTIFSAPHYCGQFDNCAAFMSCDEKLQCSFEILRPTTGRLEIREKPLLKDETN” the “soluble on expression in E. coli” value was “not soluble”.
In the case of “MGIKHLNLTVADVVAAREFLEKYFGLTCSGTRGNAFAVMRDNDGFILTLMKGKEVQYPKTFHVGFPQESEEQVDKINQRLKEDGFLVEPPKHAHAYTFYVEAPGGFTIEVMC”, the “soluble on expression in E. coli” value is reported as “soluble”.
In the case of “MIADDPHLELRLAASERDLRAAQRLRYTVFVEELGGDGDLVDHAERLERDEFDDLCDHLLLIDRRRDAAALEDVVGVYRLLPGERAAGAGRFYCDSEYDLDPLRASGRRVLELGRSCVHPDYRGGAAVFLLWSGLADYALAQRTELLFGVASFHGTDIEALAEPLSYLHAFHLAPEELRVRARSEGGQRMDLIPPERIDRRAAMLAMPPLIKAYLRLGGVVGEGAWIDRAFNTTDVCLLMDTARMSARHRDFYARRTVSAE”, the “soluble on expression in E. coli” value is reported as “not soluble”.
In the case of “MDLEPIFLTPVFQERIWGGTKLAERFGYDIPSSQTGECWAVSAHPHGQTVVARGPFAGMTLGQLWEERRDLFGHFPSDRFPLLTKILDANADLSVQVHPDDEYAKTHEGGELGKTECWYIIDCKPGAKLIYGHYAETKGELRAMMEAGEWDRLLRKVPIRPGDFFYVPSGTIHALCEGTLVLETQQSSDTTYRVYDYDRVDSQGRKRELHLEKAIDVTTVPHRDIDVHPHVAEFPGATVTTFVEGDYFGVQKWDVHDAFASEQTKPFLIVSILKGEGELVHHERIYAIRQGDHFILPHQFGRFTIRGMLEAIASWPRAGK”, the “soluble on expression in E. coli” value is reported as “not soluble”.
With “GSHMRRYIGVMMLTLSPSILAELQLREPSFPDVQHGVLIHKVILGSPAHRAGLRPGDVILAIGEQMVQNAEDVYEAVRTQSQLAVQIRRGRETLTLYVTPEVTEGGGWTMFWV” the “soluble on expression in E. coli” value was “soluble”.
